Measurements from patent US20140308287A1 (SEA LANE BIOTECHNOLOGIES, published 2014).
Where a chain is given by its changes, count along the chain named.

B1: 2995-A01 (other)
VH: EVQLLESGGGLVQPGGSLRLSCAASGFTFSSYWMHWVRQAPGKGLEWVAAISSSGTYTYYADSVKGRFTISRDNSKNTLYLQMNSLRAEDTAVYYCAKDNFILLNSWFDYWGQGTLVTVSS
light: QPVLHQPPAMSSALGTTIRLTCTLRNDHDIGVYSVYWYQQRPGHPPRFLLRYFSQSDKSQGPQVPPRFSGSKDVARNRGYLSISELQPEDEAMYYCAMGARSSVTHVFGSGTQLTVLSQPKATPSVTLFPPSSEELQANKATLVCLMNDFYPGILTVTWKADGTPITQGVEMTTPSKQSNNKYAASSYLSLTPEQWRSRRSYSCQVMHEGSTVEKTVAPAECS
B2: 2995-A02 (other)
VH: B1 VH with H35N, A50L, S53N, S54G, T56G, Y57I, T58K
light: B1 light
notes: copies: 1 + 1
B3: 2995-A05 (other)
VH: B1 VH with S31N, S53N, S54G, G55S, T56S
light: B1 light
B4: 2995-A06 (other)
VH: B1 VH with A50G, S53D, S54G, T56A
surrogate light: B1 light
notes: copies: 1 + 1
B5: 2995-A07 (other)
VH: B1 VH with A50G, S54G, T56A
light: B1 light
B6: 2995-A08 (other)
VH: B1 VH with A50G, S53N, S54G, T56S, Y57I, T58I
light: B1 light
B7: 2995-A09 (other)
VH: B1 VH with A50G, S53Y, S54G
light: B1 light
B8: 2995-A12 (other)
VH: B1 VH with S31D, H35N, A50N, S53G, S54G, T56G, T58I
surrogate light: B1 light
B9: 2995-B01 (other)
VH: B1 VH with S31D, W33A, A50L, S54G, T56R, T58K
light: B1 light
B10: 2995-B02 (other)
VH: B1 VH with S31D, A50V, S54N, T56R
light: B1 light
notes: copies: 1 + 1
B11: 2995-B04 (other)
VH: B1 VH with S31N, A50L, S53N, S54N
light: B1 light
B12: 2995-B06 (other)
VH: B1 VH with S31N, W33G, A50L, S54G, T56A
light: B1 light
B13: 2995-B10 (other)
VH: B1 VH with S53A, S54G, G55S, T56G, T58I
surrogate light: B1 light
notes: copies: 1 + 1
B14: 2995-C02 (other)
VH: B1 VH with S31N, H35N, A50N, S54G, T56S
surrogate light: B1 light
notes: copies: 1 + 1
B15: 2995-C03 (other)
VH: B1 VH with A50G, S53G, S54G, T56R
surrogate light: B1 light
notes: copies: 1 + 1
B16: 2995-C05 (other)
VH: B1 VH with S31D, S54G, G55S, T56S
surrogate light: B1 light
notes: copies: 1 + 1
B17: 2995-C07 (other)
VH: B1 VH with S31N, A50L, S54G, G55S, T58I, Y59S, F108L
light: B1 light
B18: 2995-C10 (other)
VH: B1 VH with A50G, S53G, S54G, T56A
light: B1 light
notes: copies: 1 + 1

Target: T1, human ErbB3-Fc (R&D Systems) (human, UniProt P21860 20-643)
T1 construct: Bought protein; also called wild-type ErbB3-Fc fusion; immobilized ErbB3; not shown: Fc part of the bought fusion protein; not described
Experiment: ELISA on ErbB3-Fc, soluble monovalent Sab (Example 42)

Binder | EC50 [pM]
B1 | 71
B2 | 18
B3 | 22
B4 | 32
B5 | 22
B6 | 20
B7 | 45
B8 | 10
B9 | 46
B10 | 16
B11 | 21
B12 | 10
B13 | 32
B14 | 28
B15 | 27
B16 | 15
B17 | 56
B18 | 20
